Positions count from the first letter of the chain named.
B1: CL-512264 (antibody, V domains shown)
VH: QVQLVESGGGVVQPGRSLRLSCVTSGFTFSNFGMHWVRQAPGKGLEWVAIIWYDGSNKFYADSLKGRFTISRDNSKNTLFLQMNSLRAEDTAVYYCARAHTVTTANDKYGTDVWGQGTTVTVSS
VL: DIQMTQSPSTLSASVGDRVTITCRASQSISSWLAWYQHKPGKAPKLLIYKASSLESGVPSRFSGSGSGTEFTLTISSLQPDDFATYFCQQYNSYWTFGQGTKVEIK
modifications: peptides N-terminally acetylated and C-terminally amidated
B2: CL-515284 (antibody, V domains shown)
VH: QVQLVGSGGGVVQSGRSLRLSCAASGFTFSNFGMHWVRQTPDKGLEWLAIIWYDGSHKFYVDSVKGRFTISRDNSMNTLFLQMNSLRAEDTGVYYCVRSWNYADSKYGMDVWGQGTTVTVSS
VL: B1 VL with H38Q, K45N, F87Y, N92Y, S93N
modifications: peptides N-terminally acetylated and C-terminally amidated
B3: CL-513780 (antibody, V domains shown)
VH: QVQLVESGGGVVQPGRSLRLSCTASGFIFSNYGMYWVRQAPGKGLDWVALIWYDGSNKYYVGSVKGRFTISRDNSKNTLYLQMNSLRAEDTAVYYCARAGKYSGSGSYLDSWGQGTLVTVSS
VL: B1 VL with Q6P, T10I, S28N, H38Q, N92Y
modifications: peptides N-terminally acetylated and C-terminally amidated
B4: CL-514146 (antibody, V domains shown)
VH: QVQLVESGGGVVQPGRSLRLSCAVSGFTFSNSGMHWVRQAPGKGLEWVAIIWYDGNNKFYADSVKGRFTISRDNSKNTLYLQMNSLRAEDTSIYYCARAYPSGNYGDKYGMDVWGQGTTVTVSS
VL: B1 VL with Y36F, H38Q, K42N, S76N, F87Y, Y94F
modifications: peptides N-terminally acetylated and C-terminally amidated
B5: CL-445827 (antibody, V domains shown)
VH: QVQLVASGGGVVQPGRSLRLSCVASGFTFSFFGMHWVRQTPGRGLEWVAIIWYDGGHKFYADSVKGRFTISRDNSKDTLYLQMNSLRAEDTAVYYCARAEDNMARGNIDYSKYGMDVWGQGTTVTVSS
VL: B1 VL with A13V, V15I, S31T, H38Q, S53N, E70D, S77G, F87Y, N92F
modifications: peptides N-terminally acetylated and C-terminally amidated
B6: CL-440422 (antibody, V domains shown)
VH: QVQLVESGGGVVQPGRSLRLSCAASGFTFSNFGMHWVRQTPDRGLEWVAIIWFDGSNTFYTDSVKGRFTISRDNYMNTLYLQMNSLRAEDTAVYYCARSFYSDSAGSLFDYWGQGTLVTVSS
VL: DIQMTQSPSTLSASVGDRVTITCRASQNINNWVAWYQQKPGKAPKLLIYKASDLETGVPSRFSGSGSGTEFTLTISGLQPDDFATFYCLQNNHYWTFGQGTKVEIK
modifications: peptides N-terminally acetylated and C-terminally amidated
B7: CL-444424 (antibody, V domains shown)
VH: QVQLVESGGGVVQPGRSLRLSCTASGFTFSNYGMHWIRQAPGKGLEWVAIIWFDGSSQYYADSVKGRFTISRDNSKNTLYLQMNSLRAEDTAVYYCVRALYDSGSLFDFWGLGTLVTVSS
VL: B1 VL with S28N, W32L, H38Q, S65N, I75V, F87S, Q89L, S93N
modifications: peptides N-terminally acetylated and C-terminally amidated
B8: CL-510484 (antibody, V domains shown)
VH: QVQLVESGGGVVQPGRSLRLSCAASGFTFSNYGMNWVRQAPGKGLEWMAVIWYDGSNKYYGDSVKGRFTISRDNSKNTLYLQMISLRAEDTAVYFCAKSGEFYGSGSHFDYWGQGTLVTVSS
VL: not shown
modifications: peptides N-terminally acetylated and C-terminally amidated
B9: CL-444906 (antibody, V domains shown)
VH: QVQLVESGGGVVQPGRSLRLSCTASGFTFSTYGMHWVRQAPGKGLEWVAIIWYDGSNKFYADSVKGRFTISRDNSKDTLYLQMNSLRAEDTAIYYCARAWDKVDDKYGMDVWGQGTTVTVSS
VL: not shown
modifications: peptides N-terminally acetylated and C-terminally amidated
B10: CL-510416 (antibody, V domains shown)
VH: QVQLVESGGGVVQPGRSLRLSCEASGFTFSNYGMHWVRQGPGKGLEWVALMWYDGSNKYYSDSVKGRFTISRDNSKSTLYLQMNSLRAEDTAVYYCARPITGNTHSKYTMDVWGQGTTVTVSS
VL: B1 VL with H38Q, S53T
modifications: peptides N-terminally acetylated and C-terminally amidated
B11: CL-512870 (antibody, V domains shown)
VH: QVQLVESGGGVVQPGRSLRLSCEASGFTFSHYGMHWVRQAPGRGLEWVAIIWYDGSNTYYRDSVKGRFTISRDNSKDTLFLQMNSLRPDDTAVYYCARALYYDSGSLFDFWGQGTLVTVSS
VL: B1 VL with H38Q, S56T, S67F, T74S, F87Y, Q89L, S93I
modifications: peptides N-terminally acetylated and C-terminally amidated
B12: CL-513274 (antibody, V domains shown)
VH: QVQLVESGGGVVQPGRSLRVSCAASGFTFSNYGMYWVRQAPGKGLEWVALIWHDGSNKFYEDSVKGRFTISRDNSKNTLYLQMNSLRAEDTAVYYCARAGYFQGSGSFLDYWGQGTLVTVSS
VL: B1 VL with S31T, H38Q, N92S
modifications: peptides N-terminally acetylated and C-terminally amidated
B13: CL-442127 (antibody, V domains shown)
VH: QAQLVESGGGVVQPGKSLRLSCAASRFTFRNYGMHWVRQGPVKGLEWVALIWHDGSNKFYSDSVRDRFTISRDNSKNKLFLQMNSLTADDTALYYCVRSNYDGSGTYGWFGPWGQGTLVTVSS
VL: EIVLTQSPGTLSLSPGERATLSCRASQSVISNYLAWYQQKPGQAPRLLIYGASTRDIGIPDRFSGSGSGTDFTLTISRLEPEDFAVYFCHQYGSSFTFGPGTKVDFK
modifications: peptides N-terminally acetylated and C-terminally amidated
B14: CL-509940 (antibody, V domains shown)
VH: QVQLVESGGGVVQPGRSLRLSCAASGFTFSTYGMHWVRQAPGKGLEWVAVIWYDGSIKFYADSVKGRFTISRDDSKNTLYLQMNSLRAEDTAVYYCARDGGYSDSGRFGWFDPWGQGNLVTVSS
VL: EIVMTQSPVTLSVSPGERVTLSCRASQSVSSNLAWYQQKPGQAPRLLIYGASNRATGIPDRFSGSGSGTEFSLTVTSLQSEDFAVYYCQQYNQWRTFGQGTKVEIR
modifications: peptides N-terminally acetylated and C-terminally amidated
B15: Ky15.10 (antibody, V domains shown)
VH: QVQLVESGGGVVQPGRSLRLSCAASGFTFSNSGMHWVRQVPGKGLEWVAIIWYDGSNKYYADSVKGRFSVSRDNSENTLYLQMSNLRAEDTAVYYCVRAYFDSENLYDYYGMDVWGQGTTVTVSS
VL: B1 VL with S31R, Y36F, H38K, K50T, S53N, F87Y, N92Y, S93N, I105V
modifications: peptides N-terminally acetylated and C-terminally amidated
B16: CL-512206 (antibody, V domains shown)
VH: QVQLVESGGGVVQPGRSLRLSCAASGFTFSHYGMHWVRQAPGKGLEWVAVIWYDGNNKFYADSVKGRFTISRDNSNNTLYLQMNSLRAEDTAVYHCVRERTGATSRGFDFWGQGTLVTVSS
VL: QSVLTQPPSVSAAPGQKVTISCSGSDSNIEKYYVSWYQQLPGSAPKLLIYDNNKRPSGIPDRFSGSKSGTSATLGITGLQTGDEAVYYCGTWDSSLSTGVFGGGTKLTVL
modifications: peptides N-terminally acetylated and C-terminally amidated
B17: CL-512564 (antibody, V domains shown)
VH: QVQLVESGGGVVQPGRSLRLSCAASGFTFSNSGMHWVRQAPGKGLEWVAIIWYDGSHKFYADSVKGRFTISRDNSKNTLYLQMNSLRIEDTAMYYCVRSYNWNYPVRGDYKYGMDVWGQGTTVTVSS
VL: B1 VL with Y36F, H38Q, K45N, K50M, E55Q, F87Y, Y91F, S93T
modifications: peptides N-terminally acetylated and C-terminally amidated
B18: CL-511771 (antibody, V domains shown)
VH: QVQLVESGGGVVQPGRSLRLSCAASGFTFSNSGMHWVRQAPGKGLEWVAIIWYDGSNKYYAESMKGRFTISRDNSKNTLYLQMNSLRAEDTAVYYCARDGTTNAFDLWGQGTMVTVSP
VL: not shown
modifications: peptides N-terminally acetylated and C-terminally amidated
B19: CL-512296 (antibody, V domains shown)
VH: QVQLVESGGGVVQPGRSLRLSCAASGFTFSNYGMHWVRQAPGKGLEWVAVIWYDGSKKFYADSVMGRFTISRDNSKNTLVLQMNSLGAEDTAVYYCARDRGYSGYVFDYWGQGTLVTVSS
VL: QSALTQPASVSGSPGQSIAISCTGTSSDVGGYNFVSWYRHHPGKAPKLMIYDVSNRPSGVSNRFSGSKSGNTASLTISGLQAEDEADYYCCSYAGSCSVFGGGTKLTVL
modifications: peptides N-terminally acetylated and C-terminally amidated
B20: CL-513701 (antibody, V domains shown)
VH: B3 VH with P14T, D46E, G62D
VL: B1 VL with T10S, L11V, S28G, H38Q, K50T, E55Q, E70D, N92S, S93R
modifications: peptides N-terminally acetylated and C-terminally amidated
B21: CL-531969 (antibody, V domains shown)
VH: B4 VH with V24A, N31S, K43M, N56S, S92A, I93V, P101V, K108N
VL: B1 VL with Y36F, H38Q, S76N, S93Y
modifications: peptides N-terminally acetylated and C-terminally amidated
B22: CL-440582 (antibody, V domains shown)
VH: QVQLVESGGGVVQPGRSLRLSCAASGFTLNNYGIHWVRQAPGKGLEWLSLIWYDGSNKFYADSVKGRFTVSRDNSQNTVSLHMSSLSVDDTAVYYCARPGIGVPGDKYTMDVWGQGTTVTVSS
VL: DIQMTQSPSTLSASVGDRVTITCRASQTISAWLAWYQQKLGKAPKILIYKASILESGVPSRFSGSGSGTEFTLTINSLQPDDFATYYCQQYNYDWTFGQGTKVEIN
modifications: peptides N-terminally acetylated and C-terminally amidated
B23: CL-445635 (antibody, V domains shown)
VH: QVQLVESGGAVVQPGTSLRLSCAASGFTFSNYGMHWVRQAPGKGLQWVALIWYNGNNKFYAESVEGRFIISRDNSKNILFLQMNSLSAEDTAVYYCARAFYYDSGNYLDYWGPGSLVTVSS
VL: DIQMTQSPSSVSASVGDRVTITCRARQDISSRLAWYQQKPGKAPKILIYGASSLQSGVPSRFSASGSGTDFTLTISSLQPEDFATYYCQQANSFPWTFGQGTKVEIK
modifications: peptides N-terminally acetylated and C-terminally amidated
B24: CL-444639 (antibody, V domains shown)
VH: QVQLVESGGGVVQPARSLRLSCAASGFTFSSYGMHWVRQAPGKGLEWVAVIWYDGSNKYYADSVKGRFTISRDNSKNTLYLQMNSLRAEDTAVYYCAKVGDFYGSGSYPHYYGMDVWGQGTTVTVSS
VL: not shown
modifications: peptides N-terminally acetylated and C-terminally amidated
B25: CL-513041 (antibody, V domains shown)
VH: QEHLVESGGGVVQPGRSLRLSCAASGFTFSNSGMHWVRQAPGKGLEWVAVIWYDGSNKFYADSVRGRFTISRDNSNNTLYLQMNSLRAEDTALYYCARDRLFSGSWNWFDPWGQGTLVTVSS
VL: EIVLTQSPATLSLSPGERATLSCRASQSVSTYLAWYQQKPGQAPRLLIYDASNRATGIPARFSGSGSGTDFTLTISSLEPEDFAVYYCQQRSNWFTFGGGTKVEIK
modifications: peptides N-terminally acetylated and C-terminally amidated

What follows are binders tested against PfCSP full length (Plasmodium falciparum (isolate NF54), UniProt P19597) (assay: ELISA AUC).
Sequence of PfCSP full length (P19597 20-375): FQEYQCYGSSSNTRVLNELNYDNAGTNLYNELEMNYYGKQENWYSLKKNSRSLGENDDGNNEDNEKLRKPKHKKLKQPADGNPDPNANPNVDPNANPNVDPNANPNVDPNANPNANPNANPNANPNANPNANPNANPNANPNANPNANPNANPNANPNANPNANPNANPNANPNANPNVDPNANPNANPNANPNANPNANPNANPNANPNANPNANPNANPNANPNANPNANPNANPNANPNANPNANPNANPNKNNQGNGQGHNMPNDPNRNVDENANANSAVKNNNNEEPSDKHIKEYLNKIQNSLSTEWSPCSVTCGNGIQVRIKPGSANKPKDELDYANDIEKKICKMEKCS

Binder | binding score
B1 | 2.54
B2 | 2.19
B3 | 2.48
B4 | 2.39
B5 | 2.5
B6 | 2.5
B7 | 2.3
B8 | 2.03
B9 | 2.6
B10 | 2.57
B11 | 2.23
B12 | 2.23
B13 | 2.3
B14 | 2.09
B15 | 2.17
B16 | 1.86
B17 | 2.14
B18 | 2.64
B19 | 1.86
B20 | 2.54
B21 | 2.5
B22 | 2.6
B23 | 2.4
B24 | 2.4
B25 | 2.13

— publication PMC10720262 (2023)
